Consider 3 substances from patent US20150147342A1.

The target in assay [1] is wild-type human Ang-2 (hAng-2-WT) (human) (UniProt O15123). Kind of assay: SPR, peptibody captured on anti-human IgG, 25 C.
The target in assay [2] is Full-length wild-type human Ang-1 (hAng-1-WT) (human) (UniProt Q15389). Nature of the assay: SPR, peptibody captured on anti-human IgG, 25 C. In general terms: Surface plasmon resonance follows binding to a sensor surface in real time, without labels.
Assay [3] concerns the target Monomeric fibrinogen-like domain of human Ang2 (hAng-2FD) (human) (UniProt O15123). Kind of assay: SPR, peptibody captured on anti-human IgG, 25 C, steady-state.
Assay [4] addresses Full-length wild-type human Ang-1 (hAng-1-WT) (human) (UniProt Q15389). Kind of assay: SPR, peptibody captured on anti-human IgG, 25 C. This is another data set of the same source.
In assay [5] the target is wild-type human Ang-2 (hAng-2-WT) (human) (UniProt O15123). Nature of the assay: SPR, peptibody captured on anti-human IgG, 25 C. This is another data set of the same source.
Assay [6] shares this target. Nature of the assay: SPR, peptibody captured.
For assay [7], the target named is Monomeric fibrinogen-like domain of human Ang2 (hAng-2FD) (human) (UniProt O15123). Nature of the assay: SPR, peptibody captured.
For assay [8], the target named is Full-length wild-type human Ang-1 (hAng-1-WT) (human) (UniProt Q15389). Kind of assay: cell-based or functional assay.
The target is the same in assay [9]. Nature of the assay: SPR, peptibody captured on anti-human IgG, 37 C.
In assay [10] the target is wild-type human Ang-2 (hAng-2-WT) (human) (UniProt O15123). Nature of the assay: SPR, peptibody captured on anti-human IgG, 37 C.
Assay [11] concerns the target Monomeric fibrinogen-like domain of human Ang2 (hAng-2FD) (human) (UniProt O15123). Kind of assay: SPR, antibody captured on anti-human IgG, 37 C, steady-state.
For assay [12], the target named is Dimeric Human Ang-2FD-mFc (human) (UniProt O15123). Nature of the assay: SPR, antibody captured on anti-human kappa, 25 C.
In assay [13] the target is Dimeric fibrinogen-like domain of monkey (Macca fascicularis) Ang-2 conjugated to human IgG1 (monkey (Macca fascicularis)). Kind of assay: SPR, antibody captured on anti-human kappa, 25 C.
Assay [14] deals with Dimeric fibrinogen-like domain of mouse (Mus musculus) Ang-2 conjugated to human IgG1 (mouse (Mus musculus)). Nature of the assay: SPR, antibody captured on anti-human kappa, 25 C.
The target in assay [15] is Full-length wild-type human Ang-1 (hAng-1-WT) (human) (UniProt Q15389). Nature of the assay: SPR, antibody captured on anti-human IgG, 25 C.
Assay [16] deals with wild-type human Ang-2 (hAng-2-WT) (human) (UniProt O15123). Kind of assay: SPR, antibody captured on anti-human IgG, 25 C.
For assay [17], the target named is Monomeric fibrinogen-like domain of human Ang2 (hAng-2FD) (human) (UniProt O15123). Nature of the assay: SPR, antibody captured on anti-human IgG, 25 C.
Assay [18] deals with Dimeric Human Ang-2FD-mFc (human) (UniProt O15123). Kind of assay: SPR, antibody captured on anti-human kappa, 37 C.
The target of assay [19] is Dimeric fibrinogen-like domain of monkey (Macca fascicularis) Ang-2 conjugated to human IgG1 (monkey (Macca fascicularis)). Kind of assay: SPR, antibody captured on anti-human kappa, 37 C.
For assay [20], the target named is Dimeric fibrinogen-like domain of mouse (Mus musculus) Ang-2 conjugated to human IgG1 (mouse (Mus musculus)). Nature of the assay: SPR, antibody captured on anti-human kappa, 37 C.
The target of assay [21] is hAng-1-WT (human) (UniProt Q15389). Kind of assay: SPR, 1 uM blocker + 10 nM hAng-1-WT over hTie-2-mFc surface (competitor), 25 C.
Assay [22] has the same target. Nature of the assay: SPR, 1 uM blocker + 10 nM hAng-1-WT over hTie-2-mFc surface (competitor), 25 C; RU of Ang-1 bound to Tie-2.

Sequence of Dimeric fibrinogen-like domain of monkey (Macca fascicularis) Ang-2 conjugated to human IgG1 (monkey (Macca fascicularis)) (chain, as listed by the source limits assumed): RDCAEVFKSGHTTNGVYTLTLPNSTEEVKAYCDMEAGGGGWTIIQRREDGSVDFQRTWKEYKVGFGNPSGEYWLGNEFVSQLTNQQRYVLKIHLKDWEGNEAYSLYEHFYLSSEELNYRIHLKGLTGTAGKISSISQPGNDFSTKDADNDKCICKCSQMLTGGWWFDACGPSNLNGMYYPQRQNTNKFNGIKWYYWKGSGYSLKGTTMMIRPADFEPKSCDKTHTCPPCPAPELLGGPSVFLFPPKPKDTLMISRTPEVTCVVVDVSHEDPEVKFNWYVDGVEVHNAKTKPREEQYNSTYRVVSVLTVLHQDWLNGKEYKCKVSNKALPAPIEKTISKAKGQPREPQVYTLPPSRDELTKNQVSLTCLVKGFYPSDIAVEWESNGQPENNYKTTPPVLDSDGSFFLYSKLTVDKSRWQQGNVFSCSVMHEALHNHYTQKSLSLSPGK
Sequence of Monomeric fibrinogen-like domain of human Ang2 (hAng-2FD) (human) (O15123 282-496 limits assumed): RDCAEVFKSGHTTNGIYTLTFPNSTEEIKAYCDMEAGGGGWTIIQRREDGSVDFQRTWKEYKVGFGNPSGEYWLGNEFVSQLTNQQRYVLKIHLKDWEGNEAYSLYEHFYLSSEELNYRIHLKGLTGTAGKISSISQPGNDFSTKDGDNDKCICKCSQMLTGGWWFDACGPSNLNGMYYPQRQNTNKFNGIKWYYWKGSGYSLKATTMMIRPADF
Sequence of Dimeric Human Ang-2FD-mFc (human) (O15123 282-496 limits assumed): as above
Sequence of Dimeric fibrinogen-like domain of mouse (Mus musculus) Ang-2 conjugated to human IgG1 (mouse (Mus musculus)) (chain, as listed by the source limits assumed): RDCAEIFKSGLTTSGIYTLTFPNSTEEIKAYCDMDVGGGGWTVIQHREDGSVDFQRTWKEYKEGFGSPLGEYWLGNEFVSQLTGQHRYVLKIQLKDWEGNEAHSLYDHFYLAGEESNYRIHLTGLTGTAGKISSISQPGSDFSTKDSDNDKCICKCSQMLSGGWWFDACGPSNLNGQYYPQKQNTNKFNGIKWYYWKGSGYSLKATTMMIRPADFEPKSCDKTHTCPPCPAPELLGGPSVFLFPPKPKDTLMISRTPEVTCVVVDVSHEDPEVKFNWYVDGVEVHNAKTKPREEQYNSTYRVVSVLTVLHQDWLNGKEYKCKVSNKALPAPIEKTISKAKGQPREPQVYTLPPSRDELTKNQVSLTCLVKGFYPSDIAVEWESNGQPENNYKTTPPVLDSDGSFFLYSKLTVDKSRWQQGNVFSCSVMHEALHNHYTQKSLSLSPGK
Sequence of Full-length wild-type human Ang-1 (hAng-1-WT) (human) (Q15389 20-498 limits assumed): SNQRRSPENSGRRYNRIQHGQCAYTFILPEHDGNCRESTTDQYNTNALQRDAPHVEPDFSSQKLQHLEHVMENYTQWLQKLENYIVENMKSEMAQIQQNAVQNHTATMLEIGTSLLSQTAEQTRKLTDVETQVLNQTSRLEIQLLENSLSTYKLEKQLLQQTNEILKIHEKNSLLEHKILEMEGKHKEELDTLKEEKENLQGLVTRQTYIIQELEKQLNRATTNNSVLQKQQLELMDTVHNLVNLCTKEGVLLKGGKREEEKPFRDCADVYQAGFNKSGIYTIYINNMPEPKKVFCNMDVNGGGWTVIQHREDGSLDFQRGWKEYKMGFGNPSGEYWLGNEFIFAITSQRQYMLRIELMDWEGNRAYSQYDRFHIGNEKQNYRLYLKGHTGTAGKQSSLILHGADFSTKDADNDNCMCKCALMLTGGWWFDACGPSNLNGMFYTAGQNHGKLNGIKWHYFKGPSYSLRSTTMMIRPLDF
Sequence of wild-type human Ang-2 (hAng-2-WT) (human) (O15123 19-496 limits assumed): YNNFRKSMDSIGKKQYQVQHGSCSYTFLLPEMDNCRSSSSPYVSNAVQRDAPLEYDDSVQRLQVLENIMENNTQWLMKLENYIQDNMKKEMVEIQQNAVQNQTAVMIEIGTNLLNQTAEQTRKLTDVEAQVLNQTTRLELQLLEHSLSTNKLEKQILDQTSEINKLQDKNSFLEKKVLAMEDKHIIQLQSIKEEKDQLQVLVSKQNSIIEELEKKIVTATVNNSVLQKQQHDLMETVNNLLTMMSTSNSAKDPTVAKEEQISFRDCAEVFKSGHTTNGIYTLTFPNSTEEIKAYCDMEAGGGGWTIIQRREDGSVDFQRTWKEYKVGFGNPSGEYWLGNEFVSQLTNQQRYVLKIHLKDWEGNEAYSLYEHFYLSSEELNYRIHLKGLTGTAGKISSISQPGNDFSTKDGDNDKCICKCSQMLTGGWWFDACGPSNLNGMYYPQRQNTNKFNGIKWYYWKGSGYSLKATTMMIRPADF
Sequence of hAng-1-WT (human) (Q15389 20-498 limits assumed): as the sequence (Q15389 20-498 limits assumed) above

One may read the Kd as the concentration at which binding is half-saturated. Broadly, the koff is a measure of how fast the partners let go of each other. Broadly, the kon is the rate constant with which the complex forms. In the case of “Control II: peptibody that binds human Ang-2 having the amino acid sequence of 2XCon4(C) (Fc fusion)”, the Kd was 0.652 nM in assay [1]; 0.0826 nM in assay [2]; 90 nM in assay [3]; 0.0782 nM in assay [4]; 0.0447 nM in assay [5]; 0.0447 nM in assay [6]. For the same substance, the Kd came out at 90 nM in assay [7], 0.155 nM in [9] and 3.09 nM in assay [10]. Besides, the T1/2 turned out to be 3.55 h in assay [1]; 7.67 h in assay [2]; 5.43 h in assay [4]; 5.58 h in [5]; 5.58 h in assay [6]; 4.43 h in assay [9]. The T1/2 in assay [10] came to 1.65 h. Further, the koff in assay [1] worked out at 5.41e-05 s⁻¹; in assay [2], 2.51e-05 s⁻¹; in [4] it was 3.54e-05 s⁻¹; in assay [5] it was 3.45e-05 s⁻¹; in assay [9] it was 4.35e-05 s⁻¹; in [10], 0.000117 s⁻¹. In addition, the kon in [1] stood at 83000 M⁻¹ s⁻¹; in [2] it was 304000 M⁻¹ s⁻¹; in [4] it was 453000 M⁻¹ s⁻¹; in assay [5], 773000 M⁻¹ s⁻¹; in [9] it was 281000 M⁻¹ s⁻¹; in [10] it was 37900 M⁻¹ s⁻¹. In addition, the inhibition of Ang-1-induced Tie-2 phosphorylation in EA.hy926 cells (Western blot) in assay [8] is 50 nM.
In the case of “Control IV: human anti-Ang-2 antibody with the variable regions of 3.19.3”, the Kd stood at 94 nM in assay [11]; 0.0127 nM in assay [12]; 0.0155 nM in assay [13]; 0.0402 nM in assay [14]; 0.168 nM in [15]; 0.0722 nM in assay [16]. The Kd in assay [17] stood at 125 nM; in assay [18], 0.00991 nM; in [19], 0.0474 nM; in [20], 0.054 nM. For the same substance, in assay [8], the inhibition of Ang-1-induced Tie-2 phosphorylation in EA.hy926 cells (Western blot) was 100 nM. Besides, the T1/2 in assay [12] worked out at 4.48 h; in assay [13], 5.7 h; in [14] it was 4.82 h; in assay [15], 1.75 h; in assay [16], 0.7 h; in [17], 19 s. Further, the figures for the T1/2 in [18], in assay [19] and in assay [20] were 3.07 h, 1.78 h and 1.98 h, respectively. Besides, the results for the koff in [15], in assay [16] and in [17] were 0.000111 s⁻¹, 0.000274 s⁻¹ and 0.0356 s⁻¹, respectively. Also, the results for the kon in assay [15], in [16] and in [17] were 660000 M⁻¹ s⁻¹, 3.8e+06 M⁻¹ s⁻¹ and 284000 M⁻¹ s⁻¹, respectively.
On to “Negative Control (irrelevant peptibody) (Fc fusion)”, for which the Percent of Negative Control Binding with hAng-1-WT (human) [21] turned out to be 100%. For the same substance, in the assay with hAng-1-WT (human) [22], the RU (average) turned out to be 169 RU.
